Source: patent US20150025016A1 (COMMISSARIAT A L ENERGIE ATOMIQUE ET AUX ENERGIES …, published 2015)

B1: peptide i1 (fragment of histone H3, α3 helix) (peptide)
peptide: GAMGTIMPKDIQLARRIRG
notes: The N-terminal GAMG comes from the cloning vector

These binders were tested against T1, Asf1 (1-156), conserved N-terminal domain of human Asf1 (human, UniProt Q9Y294 1-156) (assay: ITC (microcalorimetry); second printing of SEQ ID No 42 in a later block of the 6th table).
T1 construct: range 1-156; The ITC legend says Asf1 1-156; Recombinant, cloned in peTM30; also called Asf1a 1-156
T1 sequence (Q9Y294 1-156 limits assumed): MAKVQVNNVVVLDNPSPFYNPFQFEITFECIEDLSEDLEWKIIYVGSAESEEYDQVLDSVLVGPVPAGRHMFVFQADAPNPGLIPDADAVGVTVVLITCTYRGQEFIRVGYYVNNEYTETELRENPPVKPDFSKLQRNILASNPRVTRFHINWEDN
Protocol: (§1) All calorimetry experiments were carried out in 50 mM Tris buffer pH 7.4 at 5° C., unless otherwise indicated. Peptides were introduced in the syringe at a concentration of […], and Asf1 was added to the cuvette at a concentration of 30 μM or 10 μM. Calorimety tests were also conducted at 25° C. or in 50 mM Tris buffer 150 mM NaCl pH 7.4 to obtain more detailed information on the characteristics of the interactions studied.

Binder GAMGTLTPKEAELARRIRGAGGRTLNGFG [inhibitor peptide Asf1/H3-H4, peptide i4] has a Kd of 180 nM.

Each binder was assayed against T2, human protein GST-Asf1 1-156 (human, UniProt Q9Y294 1-156) (assay: competition on GST column: GST-Asf1 1-156 beads loaded with histones H3-H4, elution with 0, 5, 10, 50 and 100 µM peptide; released histone H3 shown by Western blot (anti-H3, anti-GST)).
T2 construct: range 1-156; also called GST-Asf1a; GST beads linked to Asf1; not shown: GST tag
T2 sequence (Q9Y294 1-156 limits assumed): as the sequence (Q9Y294 1-156 limits assumed) above
Protocol: The human protein GST-Asf1 1-156 was produced and then incubated with GST beads (glutathione S transferase, Sigma). […] After washing with 50 mM Tris buffer pH8, 150 mM NaCl, 1 mM EDTA, 1 mM DTT, 0.5% NP40, the beads were incubated with different concentrations of peptide (0 to 1 mM) dissolved in the same buffer.

ASTERKWAEAARRARGAGGVTLNGAG [Peptide i5mut (control peptide)]: no binding (tested: 100 µM).

The binders below were run against T1, Asf1 (1-156), conserved N-terminal … (assay: ITC (microcalorimetry)).
Protocol: as §1

Compared with GAMGTLTPKEAELARRIRGAGASGRTLNGFG [inhibitor peptide Asf1/H3-H4 of SEQ ID No 74], GAMGTLTPKEAELARRIRGAGRTLNGFG [inhibitor peptide Asf1/H3-H4 of SEQ ID No 49] is 2-fold lower in Kd: 1890 nM for the first, 950 nM for the second.

Compared with GAMGTITPKEAQLARRIRG [Stabilized H3 fragment of SEQ ID No 71], GAMGTLTPKEAELARRIRGARTLNGFG [inhibitor peptide Asf1/H3-H4 of SEQ ID No 73] is 2.8-fold higher in Kd: 1400 nM for the first, 3890 nM for the second. The first binds more tightly here.

First: GAMGTLTPKEAELARRIRGAGGRTLNGFG [inhibitor peptide Asf1/H3-H4, peptide i4]
Second: GAMGTLTPKEAELARRIRGAGGVTYDGFG [inhibitor peptide Asf1/H3-H4 of SEQ ID No 61]
The Kd of the first is 1.8-fold higher: 180 nM for the first, 100 nM for the second. The second binds more tightly here.

GAMGTRTPKEARLARRIRGAGGRTLNGFG [inhibitor peptide Asf1/H3-H4 of SEQ ID No 57] and GAMGTITPKEAQLARRIRGAGGRTLNGFG [inhibitor peptide Asf1/H3-H4, peptide i4_2] are within 1.5-fold of each other in Kd: 260 nM for the first, 220 nM for the second.

Compared with GAMGTITPKEAQLARRIRGAGGVTLNGFG [inhibitor peptide Asf1/H3-H4, peptide i42V], GAMGTRTPKERRLARRIRGAGGRTLNGFG [inhibitor peptide Asf1/H3-H4 of SEQ ID No 56] is 12-fold lower in Kd: 350 nM for the first, 30 nM for the second. The second binds more tightly here.

GAMGTLTPKEAELARRIRGAGGVTLNGFG [inhibitor peptide Asf1/H3-H4, peptide i4V] and GAMGRVPPAVRKLGNASTERKWAELARRIRGAGGVTLNGFG [inhibitor peptide Asf1/H3-H4 of SEQ ID No 65] are the same in Kd: 60 nM for the first, 60 nM for the second.

Compared with LTAAEHAKRSTLTPKEAQLARRIEGAGASVTLNGFG [inhibitor peptide Asf1/H3-H4 of SEQ ID No 54], LTAAEHAKRSTLTPKEAELARRIEGAGASVTLNGFG [inhibitor peptide Asf1/H3-H4 of SEQ ID No 55] is 7.3-fold higher in Kd: 120 nM for the first, 880 nM for the second. The first binds more tightly here.

First: LTAAEHAKRSTLTPKEAELARRIRGAGGVTLNGFG [inhibitor peptide Asf1/H3-H4 of SEQ ID No 53]
Second: GRKKRRQRRRGAMGTITPKEAQLARRIRGAGGVTLNGFG [inhibitor peptide Asf1/H3-H4, peptide TAT-i42V]
The Kd of the first is 10-fold lower: 60 nM for the first, 620 nM for the second. The first binds more tightly here.

GAMGTLTPKEAELARRIRGAGGVTLNGANFVSTG [inhibitor peptide Asf1/H3-H4 of SEQ ID No 63] and GAMGTLTPKEAELARRIRG [Stabilized H3 fragment of SEQ ID No 72] are within 1.5-fold of each other in Kd: 1680 nM for the first, 2230 nM for the second.

ASTERKWAELARRIAGAGGVTLNGFG [Peptide i5_Aloop] and ASTEEKWARLARRIRGAGGVTLNGFG [Peptide i5_s3] are within 1.5-fold of each other in Kd: 27 nM for the first, 20 nM for the second.

First: ASTERKWAELARRIRGAGGATLNGFG [Peptide i5_loopA]
Second: ASTERKWAELARRIRGAGGVTLDGFG [Peptide i5_D]
The Kd of the first is 7-fold higher: 63 nM for the first, 9 nM for the second. The second binds more tightly here.

Going from ASTERKWAELARRIRGAGGRTLNGFG [Peptide i5_loopR] to ASTRRKWAELARRIRGAGGVTLNGFG [peptide of SEQ ID No 33], the Kd rises from 29 nM to 1330 nM (46-fold). The first binds more tightly here.

First: RRPRRPRRPRRPRRPASTERKWAELARRIRGAGGVTLNGFGGCA [inhibitor peptide Asf1/H3-H4, peptide RRP5-i5]
Second: B1
The Kd of the first is 13-fold lower: 670 nM for the first, 8700 nM for the second.

Going from GAMGTIMPKDIQLARRIRGAGASRTLYGFG [inhibitor peptide Asf1/H3-H4 of SEQ ID No 39] to GAMGTITPKEAQLARRIEGAGASVTLNGFG [inhibitor peptide Asf1/H3-H4 of SEQ ID No 44], the Kd rises from 350 nM to 660 nM (1.9-fold).

Compared with GAMGTITPKEEQLRRRIEGAGASVTLNGFG [inhibitor peptide Asf1/H3-H4 of SEQ ID No 46], GAMGTLTPKEAELARRIEGAGASVTLNGFG [inhibitor peptide Asf1/H3-H4 of SEQ ID No 45] is 4.8-fold higher in Kd: 420 nM for the first, 2000 nM for the second. The first binds more tightly here.

Compared with GAMGTITPKEAQLARRIRGAGASRTLNGFG [inhibitor peptide Asf1/H3-H4 of SEQ ID No 41], GAMGTLTPKEAELARRIRGAGASRTLNGFG [inhibitor peptide Asf1/H3-H4 of SEQ ID No 43] is 2.3-fold lower in Kd: 800 nM for the first, 350 nM for the second. The second binds more tightly here.

RRPRRPRRPRRPRRPGAMGTITPKEAQLARRIRGAGGVTLNGFGCA [inhibitor peptide Asf1/H3-H4, peptide RRP5-i42V-CA] and GAMGTLTPKEAELARRIRGAGGVTLNGFGASTG [inhibitor peptide Asf1/H3-H4 of SEQ ID No 62] are within 1.5-fold of each other in Kd: 420 nM for the first, 320 nM for the second.

Compared with GAMGRVPPAVRKLGNSTERKWAELARRIRGAGGVTLNGFG [inhibitor peptide Asf1/H3-H4 of SEQ ID No 64], RRPRRPRRPRRPRRPGAMGTITPKEAQLARRIRGAGGVTLNGFG [inhibitor peptide Asf1/H3-H4, peptide RRP5-i42V] is 7.4-fold higher in Kd: 80 nM for the first, 590 nM for the second. The first binds more tightly here.

Compared with RRPRRPRRPRRPRRPGAMGTIMPKDIQLARRIRGGCA [inhibitor peptide Asf1/H3-H4, peptide RRP5-i1], GAMGLTAAEHAKRSTLTPKEAQLARRIRGAGGVTLNGFG [inhibitor peptide Asf1/H3-H4 of SEQ ID No 52] is 15-fold lower in Kd: 460 nM for the first, 30 nM for the second.

Work on GAMGTIMPKDIQLARRIRGAGGRTLYGFG [inhibitor peptide Asf1/H3-H4, peptide i4_1] yielded a Kd of 560 nM.
